In the supplement of paper PMC12042874:
± gives the uncertainty stated by the source.

Test: amyloid nucleation score (Sup35N fusion, yeast selection) (log enrichment); library NNK2; higher = more nucleation; inactive = no reads after selection
Outline: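 Yeast lacking psi expressed peptides of 20 random codons fused to Sup35N, received 100 μM copper sulfate for 24 hours, and were then grown for 7 days at 30°C on medium lacking adenine and uracil. Illumina sequencing of input and output plasmid inserts provided the reads. Nucleation scores are DiMSum log enrichments of output over input, centred on the mode of non-aggregating sequences. Any sequence with under 100 input reads was excluded.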

| Substance | amyloid nucleation score |
| --- | --- |
| IIILYCGRYLINWTFLSCAY | inactive |
| IIPLMLFSTLWGFKVHMKGY | -0.207 ± 0.55 |
| IIPRMLDMPLSVWQEIIRFW | 0.45 ± 0.5 |
| IITIYLLAELNSVSVTSTSI | 5.138 ± 0.03 |
| IIVGATKMLCCFHVMMVYAP | 0.472 ± 0.8 |
| IIYYMTVCQDSIDRIVPFCN | 2.01 ± 0.14 |
| IKAFWS | inactive |
| IKLDIYNWAFSFNWFDK | 6.05 ± 0.075 |
| IKNLRNQGK | -0.745 ± 0.61 |
| IKRSTNISEMWHYSFGVTVL | -1.09 ± 0.63 |
| IKVDSAWETIAVVM | 0.246 ± 0.33 |
| ILADINL | inactive |
| ILAITRINA | 1.19 ± 0.13 |
| ILDLWIVESKCFTSNMLHWV | -0.424 ± 0.76 |
| ILGSARYIVCGQVSEMRSAG | 0.367 ± 0.49 |
| ILHPADQNSCT | -1.26 ± 0.34 |
| ILIKYVLAPWSSSLTVWGKA | -0.365 ± 0.3 |
| ILKSRSLVRFHFFSIGASCA | 0.427 ± 0.41 |
| ILPISVLVDHINWSDPYFIM | 0.035 ± 1 |
| ILPYGVWTRIASIKLK | 0.789 ± 0.17 |
| ILQYN | -1.49 ± 0.62 |
| ILSARRCFAQMVFVLYQNLV | -0.171 ± 0.33 |
| ILSFTGASNFVCYMIVAKAG | 6.386 ± 0.033 |
| ILSLEDLSLVRYGAIDS | -0.483 ± 1.1 |
| ILSTVTDSSCNIACSCNNN | 8.363 ± 0.047 |

| Substance | amyloid nucleation score |
| --- | --- |
| ILVLW | -0.022 ± 0.46 |
| ILWPLHVWYVICYRSNMWSY | 5.27 ± 0.077 |
| ILYMTDKLDQSSCLGLMSSH | -1.81 ± 0.78 |
| IMASLRMKDANCLSCTCYNR | 6.798 ± 0.027 |
| IMCRRG | 0.698 ± 0.52 |
| IMMLEVDDLYGIEQSTFWK | -0.33 ± 0.64 |
| IMPNLAPGCRIRAIVND | -0.006 ± 0.29 |
| IMWRTERINNYVDSV | -0.846 ± 0.45 |
| IMYPLRNLAQDFLGDSVSYL | -1.07 ± 0.62 |
| INGSYSGYLERFGGMLRWMV | 0.753 ± 0.52 |
| INIIMFNVFINLEHIYYSVG | 5.79 ± 0.066 |
| INIMARIWLQSVWLSVGRKS | 0.097 ± 0.79 |
| INISCLKVGALSKGTRLFR | 2.14 ± 0.068 |
| INLISSYHFGELTCATSYWR | 4.77 ± 0.09 |
| INLRIVSPIDLIVRWEDPTW | -1.44 ± 0.33 |
| INMGMYDSNVCDA | -0.034 ± 0.65 |
| INPSWVSCVHFM | 0.062 ± 0.74 |
| INSAGNLPQERTVLGYFHCS | -1.44 ± 0.62 |
| INSITKSVGGQRGARRY | 2.25 ± 0.21 |
| INSLTKAVYYSSHYYPVSLS | inactive |
| INVAQALLSAPA | 3.81 ± 0.062 |
| IPILSFMRGLALSRSATYMS | inactive |
| IPLVKCRSCRRCNN | 0.412 ± 0.5 |
| IPRGLFCLLYNVVKEYFVLR | 0.198 ± 0.4 |
| IPVYVAVIVG | inactive |

| Substance | amyloid nucleation score |
| --- | --- |
| IQLIQML | 0.27 ± 0.57 |
| IRADIHKLHLTIIYFKPPLV | -0.47 ± 0.78 |
| IRCVGRVVFCCNFS | 9.965 ± 0.078 |
| IRDRPHWAGGHLGWPYMWS | 4.1 ± 0.1 |
| IRGSSIEKNRMWHVGLSLTW | -0.809 ± 1.1 |
| IRHNVKRLGATNVW | -0.09 ± 0.76 |
| IRSNLTKKHLKIL | -0.994 ± 0.63 |
| IRSRLFFALLCVYS | -0.861 ± 0.41 |
| IRTLMYISHSAGGYLL | -0.576 ± 0.44 |
| IRTLSFMIANSAL | -1.16 ± 1.1 |
| IRYLYAMVLMDVNDGRYYCK | -1.54 ± 1 |
| ISCGVSLPIANCTMTHIARV | -0.23 ± 0.49 |
| ISCHLFLLALYGWNKCVCSV | 0.114 ± 0.62 |
| ISDAKRNCRCRSLPILIMVW | 0.448 ± 0.24 |
| ISDRSTHQASVLTFSPPDFY | inactive |
| ISDSRLRKCVAPHSRDSGGH | 1.96 ± 0.19 |
| ISGAL | 0.203 ± 0.45 |
| ISGYRWNHVSTFVGIYRVHS | 0.98 ± 0.53 |
| ISPEYVSTALLTECTWRVLR | 0.215 ± 0.46 |
| ISPIESSDRMGGCSLRAILP | -0.66 ± 0.35 |
| ISPLLNVYRDYWLYMF | -1.37 ± 0.75 |
| ISQRNRSIAYYKMSLTRYGF | inactive |
| ITAGVPVFYL | -1.22 ± 1.1 |
| ITCHGVVFSWLTRELLYTGL | -0.702 ± 0.45 |
| ITCIAGWSNLNDYVFYTVAS | inactive |

| Substance | amyloid nucleation score |
| --- | --- |
| ITDGENSFAFLSNRDSS | inactive |
| ITFKISNGVWYLPKRL | 6.629 ± 0.038 |
| ITGTFF | 1.99 ± 0.084 |
| ITNDLSLYYVARVGRTDYHF | 1.13 ± 0.12 |
| ITTAYGGTIEMIRELNVASV | 0.42 ± 0.47 |
| ITVFILDRYFGICV | inactive |
| ITYPVESLYNAWSGGPVTDG | 0.164 ± 0.8 |
| IVDISCI | -0.541 ± 1 |
| IVDSFTYTDVSTGSYLFG | -1.42 ± 0.75 |
| IVFFTECSYSLFRWIMNNVW | -1.4 ± 0.39 |
| IVFPDCSRYKKPHFCYEMVI | inactive |
| IVGCLGDGVRLL | -0.563 ± 0.29 |
| IVHWSLHFMRGKSAYYQYVV | inactive |
| IVKPSRKLKTQGCMKFNAWL | -0.284 ± 0.61 |
| IVLQRVGCFKDAGGNRVWEM | 0.264 ± 0.45 |
| IVLRFFGFMDHSSYRNLFKE | -0.375 ± 1.1 |
| IVQFYYVMQYRFRYCLDRMH | 1.01 ± 0.34 |
| IVRELAVVLKKFYLFALFLR | -0.882 ± 0.62 |
| IVRQIASFGRIRDRTRDDEW | 3.05 ± 0.13 |
| IVRWCLLIIIF | inactive |
| IVSCFTRVN | 5.26 ± 0.059 |
| IVTINGNN | -0.51 ± 0.44 |
| IVVSRMETSIKTCYFVMFHS | -0.421 ± 0.38 |
| IWEVNKVIIQYFPIAFKK | 5.713 ± 0.05 |
| IWFGVYIYFVDFRVILNRLL | inactive |

| Substance | amyloid nucleation score |
| --- | --- |
| IWIKNTSLLLLCRLSHCHNI | inactive |
| IWLTVVESRFVTGVVGECYW | 0.255 ± 0.45 |
| IWRNSANCGASDEAVDSLR | 0.53 ± 0.56 |
| IWSRLVVLRGRAGSDSSKNS | -0.044 ± 0.5 |
| IYAGSSLTLWGDRDNKKCDR | -1.44 ± 1 |
| IYCCISEWSNHTWV | 6.175 ± 0.036 |
| IYFMFVVYDSIHQE | 1.32 ± 0.2 |
| IYHFNFIFNYLMGDPPYRAT | 7.778 ± 0.04 |
| IYIGLCLRDYILDNMALMRQ | -0.721 ± 0.32 |
| IYLTLNGILAICASRAWAAK | 0.094 ± 0.77 |
| IYMGISVCSICYV | 6.34 ± 0.071 |
| IYNMVSCIIDLCYDKTRHSR | 3.85 ± 0.12 |
| IYPDKSFMALFPMVIDFYTQ | -2.19 ± 0.62 |
| IYQPCCCV | 0.76 ± 0.51 |
| IYRCIYRTPMLLGLYFNGPV | -0.791 ± 0.55 |
| IYVRLLDSDTSYWVQFVFLQ | inactive |
| KADLRKHSLDIGSCADGIRI | 0.416 ± 0.8 |
| KAGVKLSLGNCRYSTL | 0.527 ± 0.8 |
| KAHIAVDGIMA | 0.117 ± 0.33 |
| KATPFAGTLRVYSTVTYCAI | 0.148 ± 1 |
| KAWLSSKITKM | 0.131 ± 1 |
| KAYLCSFMMCFLL | 6.803 ± 0.056 |
| KCLVSMVLMYAVTMIWDAPD | 1.35 ± 0.3 |
| KCMQLAAFTRLLWTGPSARG | 1.85 ± 0.1 |
| KCVLLWWVIKYVCVDTDAAV | -0.174 ± 0.74 |

| Substance | amyloid nucleation score |
| --- | --- |
| KDDSQLVLRDRPSRLWRLKE | 0.804 ± 0.53 |
| KDGLTISRIQITLIKRTLVV | 0.035 ± 0.74 |
| KDHRSLSGRDMFRGTLVVVM | 0.328 ± 0.19 |
| KDPLIRDVLDNANQRLVNSV | inactive |
| KDRSQGKCLLGQQRQ | 0.782 ± 0.15 |
| KDWRGMEDFMSVFFRSGLGS | inactive |
| KEPGERRYGTAASMNYTKVD | -0.71 ± 1 |
| KEPYHNYI | 0.179 ± 0.56 |
| KERAYRGNQAKKRLKTALFY | inactive |
| KERLAFCMYGLGVDYVTFGN | 0.497 ± 0.57 |
| KERNRRAEAGSYNYVGVWVT | 0.951 ± 0.81 |
| KFAKSSNKDHHDFYAVELGT | -0.289 ± 0.63 |
| KFFMPTYN | 1.58 ± 0.17 |
| KFMCSELSNFCINCILRLVV | -0.19 ± 1.1 |
| KGCVMSY | -0.578 ± 1.1 |
| KGFRMRAWWRVGVLDCDAGT | 0.082 ± 1.1 |
| KGGWYNNYGAVNKNGWCSDK | -0.501 ± 1.1 |
| KGLASKAHSIGLCT | 1.01 ± 0.25 |
| KGNTIKSCSRMMLHRQHVW | -0.485 ± 0.45 |
| KHEIQVS | 0.33 ± 0.56 |
| KHGSMVICKPAIYTVLT | -0.021 ± 0.63 |
| KHYAL | 0.169 ± 0.8 |
| KIIVHYIYRRIRLCDSNLKR | 8.398 ± 0.046 |
| KILALATRLKIFSSLVYIRS | 0.338 ± 0.51 |
| KILRVKRQGRGSRNR | -0.055 ± 0.55 |

| Substance | amyloid nucleation score |
| --- | --- |
| KINIKGFSSYAGRYHTRKIW | inactive |
| KISCKKNWGAYVPF | -0.594 ± 1.1 |
| KITAGSGVL | 0.904 ± 0.81 |
| KIVVSFWLLPCFGKLFFPSV | -0.618 ± 0.76 |
| KKEVINWYFLTYAGLEKLCL | -0.715 ± 0.48 |
| KKSFGLLENIMVSDLFPNSS | inactive |
| KKSSECHKSEG | 0.361 ± 0.45 |
| KLCKVYVRRRSIICWGNCVP | -0.481 ± 1.1 |
| KLDTLRFCVGAHLGTPTLCW | 0.499 ± 0.34 |
| KLDVAAFVKVAE | 6.142 ± 0.039 |
| KLFFTDGFLYGNPLLSDGLD | -0.58 ± 0.39 |
| KLHRSESVHVICTVCS | 1.17 ± 0.3 |
| KLHVGNCSFSKPSPAQAGSL | 0.34 ± 0.29 |
| KLIMFCDMLKVRSNNFRSRK | 5.55 ± 0.077 |
| KLISCGCVLADWNMGYP | 3.76 ± 0.12 |
| KLLFCERGKSGSNQSSLTKT | -0.523 ± 0.54 |
| KLNLMCWDGLYLDMKIDSNL | 3.94 ± 0.07 |
| KLNNVRLGGERFDLRTLGLR | -0.104 ± 0.42 |
| KLRPNLCKHYMTFMETSS | 0.175 ± 0.53 |
